Earlier results on two substances are cited in paper PMC5146272.

One may read the Kd as the constant that tells how readily two partners part at equilibrium.

The target in one data set is Raver1 (Homo sapiens) (UniProt Q8IY67).
Data set [1] deals with U2AF35 UHM (Homo sapiens) (UniProt Q01081).
U2AF35 UHM (Homo sapiens), sequence (Q01081 43-146, one chain of several): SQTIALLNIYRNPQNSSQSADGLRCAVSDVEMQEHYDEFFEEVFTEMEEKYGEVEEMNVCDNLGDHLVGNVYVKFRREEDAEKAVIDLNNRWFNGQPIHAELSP

Raver1 (Homo sapiens), sequence (Q8IY67 2-606): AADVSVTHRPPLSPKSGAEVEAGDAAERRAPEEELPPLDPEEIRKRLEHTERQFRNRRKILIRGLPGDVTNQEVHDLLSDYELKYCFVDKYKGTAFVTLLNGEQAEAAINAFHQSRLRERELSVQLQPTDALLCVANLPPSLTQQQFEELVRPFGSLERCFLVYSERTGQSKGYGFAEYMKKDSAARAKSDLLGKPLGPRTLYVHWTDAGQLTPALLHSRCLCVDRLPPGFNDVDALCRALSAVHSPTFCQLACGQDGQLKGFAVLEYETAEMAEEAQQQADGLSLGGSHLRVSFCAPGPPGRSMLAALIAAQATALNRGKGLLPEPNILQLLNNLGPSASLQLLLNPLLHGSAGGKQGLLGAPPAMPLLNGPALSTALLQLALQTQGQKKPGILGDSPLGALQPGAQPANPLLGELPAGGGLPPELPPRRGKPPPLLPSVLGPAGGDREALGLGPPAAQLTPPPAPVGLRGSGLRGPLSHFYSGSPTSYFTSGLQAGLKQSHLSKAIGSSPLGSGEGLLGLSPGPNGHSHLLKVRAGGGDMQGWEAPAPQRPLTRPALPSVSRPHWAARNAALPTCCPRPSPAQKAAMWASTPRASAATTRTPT
U2AF65 PEP, sequence (P26368 85-112, one chain of several): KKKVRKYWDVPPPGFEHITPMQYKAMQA
PTB RRM, sequence (P26599 184-260): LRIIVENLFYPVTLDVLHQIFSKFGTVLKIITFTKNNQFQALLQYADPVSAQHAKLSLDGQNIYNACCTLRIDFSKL

PTB RRM (from UniProt P26599): the Kd with Raver1 (Homo sapiens) was 100 µM.

With U2AF65 PEP (from UniProt P26368), the Kd in data set [1] is 0.002 µM.
